For this assay, the target named is HsiB1C1 complex (P. aeruginosa PAO1). The assay is described as follows: negative stain electron microscopy.

Stoichiometry N data for one substance are collected here from article PMC3597794.

Several values for one entry are separate records, joined by “and”; a condition that tells them apart may be missing. Equal values may be shown once.

The stoichiometry N is the number of molecules, sites or subunits per partner or assembly. In the case of HsiB1C1 complex, the stoichiometry N is 12 and 13.
